The nature of this series: label from the status in PepcDB records.

On to “MKKKYFGTDGIRGKVGDFPITPDFFLRLGYAVGKVLLASDRQLAADKRPTVLIGKDTRISGYMLESALEAGFSAAGVDVLLSGPLPTPAVAYLVRALRIQAGAVISASHNPFDDNGIKFFSSAGSKLPDSMELQIEAELDQPMKTTPSIKLGRVQRLRDAAGRYIEFCKSTFPNQLDLRGLRIVVDCANGADYHIAGHVMHELGADVITTHASPDGFNINYECGATHIETLQGSILQHKADIGIAVDGDGDRVLMVSREGVLYDGDSLAYIIAKHRQQLGELQGGVAGTLMTNLAVEQAFERLGIPFARANVGDRYVSELLQQNDWYLGAENSGHIICRDKHTTGDGIISALQVLYALRDTGLTLADFMRDVPFFPQRLINVKVSGNFDFRSNPAVAACKNEAEQALGNDGRILLRASGTEPLIRVMVEGKVLQQTDYWAEKIAETIRQQAASSMTGS”, for which the protein production entry is given as “failed”.
To “MKKLFTNTIFIQSNLERLSTILKSPQNLSKWVPDINSVSPKDDYFLISRSSSALNNFEKISVTSQDNSIIYTSTGGRLEYELHFDLTNKDDRTLVEQTLLVDETLTKLPLTLLAPIAKHAFHENLSSLERLIAISLEHHHHHH” belongs “failed”; to “MKKLINIILLSLIFVFCFNLKVLANDNLESSKEKIDNDSRIERFYDYINNLETEEDILGNMSAKEYIMNYLESGEDPITLKKIGASILSYIFRELNIVLKFIASILVIALLSALLKNLQDAFNIEEGVTQIAFFACYALLIMLLTKSFFISLNLGKEVLTSIIDFMNVIVPVIVMLIATSGGVTSAVTIDPIVLGAVSITPRIYTYFLFPLILAYFTLQFVNNLSSEFKIDRMCKFIKQVVMISQGFILTIFVGILTLRGMTADTLDAVAVKTVKFAVDNFVPIVGKAFSDAITTVAGYSLAMKSVITSLGVIVIVVIVIYPIIKIGLMAICFKLTSAVIEPVVDSKISSSVETVGEALFMIMSCIISVSIMFFIMASMMATAGNFIVGG”, “failed”.
Turning to “MKKLLTFIMACVISLGATAQISEKAFEKWHQNKYSMFIHFGLYSELGGVWEGNPVTRGYSEQIQSFAGIFSDWYGDTALRFNPTLFDADAIVSLAKEAGMRSIIITTKHHDGFCMFRTATTDYNSYDATPGKRDFIKEMAEACKRGGINFGIYFSLIDWHFPQAYPISSHNCDFITPQHHEFTKAQVTELLTNYGPISELWFDMGSNTPEQSKELYQLVHRLQPDCMVSGRLGNDQYDFSVMADNTYPEGSLQTAWQTAASMFDETWSYRSWQKRGDVHTKAMEKLRSLINVVSHGGNFLLNIGPKGDGSVVPFEREVLKEIGIWLKKNGEAIYGTEASPFREQFEWGTITRKGNNLYLILSGNRPADGKITLNVPGCKLQKADIKAIQKGQEMIFTLPADAYGKDIQVICATFDQPVKPQPMAAQRTPNYSYSCFDYYSNYRSTVSYQWSINKSNLNALEFTYTPQENGKELLVEVDGIPYTVTLDAGKAQALNLPSKTVWGQRYFCGPGSGLFDAPATIHTDPDKAPVRKGQWKEVNEEKAMFPSNILESYFLMQQVESPKAQDILVDVGAGNGIEIYLNGKSVMKHLNPYRCKFREEKVLLPLQKGSNQIVVRIYNRFEKETGYLLRPSAEQVIYKQKFTLPQVAKGKVHTVVVKQNNLPSIHKDTELSNLKVEAK”, the protein production entry is “failed”.
Consider “MKKLVHLSDFHYDGLRLSEEMLAEAIAVSNQVQPDLVLLTGDYVTTTPQPIHQLAKRLQKLQSHAGIYAILGNHDLYQKNSKTEITQALTKAGIQVLWNEIAYPLGEELPIVGIVDYYYREFNPQLLFNQLEPTTPRIVLCHNPDTAAMLQGWRVDLQLSGHTHGGLEHHHHHH”, for which the protein production result is listed as “failed”.
On to “MKKQFLFLLLAVILLSSCATATLSEFPGVGRVKQYDFYSYDIPPAFDGFRIGFASDFHYESRFKRSELNSAVRALKSMHADVLLLGGDYRGKKGGNLDTLFTALSRVYTPYGTFAVMGNHDYGYCYSEVVEAMQKNHVRLMEHKSYKLMKDGQYIIVSGVRNPFDLKKNGDSPSQHFPADDFIILLTHTPDYAEDTDVSNANLVLAGHTHGGQVSLFKKYSPVKHSIYGNRFLTGWKENSKGTPIIITNGLGTSRVDVRLFTPSEVVLVVLHRVEKQKE”, for which the protein production result is “failed”.
As for “MKKRFSNKVLIIGYGSVSQCTLPLLLDKLDIPLENITLIDFEDKSKALKKYTNQGLTFVREKITPENLDQVLSQNMENEGMIIDLSWNIDANEIVKWCHDHDVLYVNTSVEVWDPAEKFLTQSLLEKSLYLRQMRLQELSRDWKDAPTAVVDHGANPGLITHFVKQGLLDIAARTCEDKKVSPEDEQEIALLAKNRDFARLARKLGIRVIHCSERDTQIASRPKEVNEFVGTWSIEGLREEGTAPVEIAWGTHESKLPPLAHIPPYGPKNVILLPQMGVNAWVRSWIPDEEIVGMAIRHGESYGLSKLLTVWEGEKAVYRPTVHYAYMPSHDTLSSLCELRGRNYELQPRLRIMTNEIVSGEDIMGALLMGHSYNSWWTGSALSIEEARSLAPGQNATTLQVAAGIVAAILWMLENPREGVKTPEDLPHDFVLDIARPYLGKFISTPSDWTPLKNRKIFFKESPAVKHDPDPWQFENFIFVGLEHHHHHH”, the entry is “not failed”; as for “MKKRILFVSAIAIQCMMTSMALANDITSQQTAENIPFEKNQLSVRLNGEQYRSAFQIDLSDPNLILTIDTDLIPEEDIDALLPELNDSEEAQVSAFNEPKSLALRIEAKEKAANGDFVGALALLNEAEALTENPAKVLSMKGSVHYKLNQVELAIVSWKKALELDPSLTEVSDIIQWLEK”, “failed”.
As to “MKKSKYLTLLSVAALTLLTSGLGSQAVLADTDTAQTTNTSTNTTTDTSKTSTALNHQEAKGQKLTTPVGTLPNAQDAISNKAVLKRVHGYSWKTTPDVSAAGSQKATVVITYTDGTTSEVEVDLEVTGTGCASQNSPVAKTGLTVKVGKSLTARSAISNLSRLRNVDSVTWKQAPSTAKAGTVKGTVLVTYTDKSTDTVDVTVKVSSVVTTKKSVKKSKKKQYVTKTRKIILDRPGKNKTITQKVKLSRTVTTTTTTTKTYTDGKLTKTSKKAKKSYGKWSKGTWKSYKVPAISGYKRSTTKVKAKAVTSKTKNITVKVSYKRVLHKPANAPYYDPADMRAKTGAYYFQSSEKRAYPNLAKYKNVWIRVSILGNRVYVMSGKKVIYTMYSSAGRFEMTNGKYQSDTPRGTFYLKAAYGPSFMSSDGVGARYYMAYYGSDYLFHSVPINNYGSGVYYKGYHYGYGGVGSTAHLTVQGTNPDSLGCIRLTLSDARWLYGQRTSGKLKVGTKVVIKYK”, the protein production result is “failed”.
With “MKKSSILVFLLTYGLFYVSSILFPIDRMWYDALEKPSWTPSGMTIGIVWTVLYGLIALSVAIIYNKYGCKPKTFWFIFLLNYMCNQAFSYFQFSQKDLFLATIDCLLVAVTTLLLIAVSSSLSKVSTWLLIPYFLWATFATYLSWSIYSIN”, the protein production entry is given as “failed”.
As for “MKKTTLFVLGLLFNSFLNAVDGISKTDLSSLNLAEDSAPLNHPNAQKLSLKNAWTRVLSNHEGLHAQEYAIKRASKMKLAAKLSFLPQIDLSAFYVYLSNPIKMDFASQKQPGVQKATNQIHQGIQNIQQNIPSQVLTPQIQAGMQGVMQGFGALSSTLEAPLLFSKQNVVIGALSIIYPLYMGGARFTMVRIADLMQKDANEVYRLKKLSTFQELVSVYYGMVLNAEVAETLEEVEKGHYKHFQNALKMQKVGQIARVETLGAQVAYDKAHIASVKAKDVLEVSQLSFNSILSSKDDLVPSSKLEIRTEKNLPDLSFFVSSTLNSYPVLKTLENQIQISKENTKLQIAKFLPQVSFFGSYIMKQNNSVFEDMIPSWFVGVAGRMPILSPTGRIQKYQASKLAELQVSSEQIQAKKNMELLVNKTYKETLSYLKEYKSLLSSVELAKENLKLQEQAFLQGLSTNAQVIDARNTLSSIVVEQKSVAYKYIVSLANLMALSDHIDLFYEFVY”, the protein production entry is “failed”.
On to “MKKTWKVFLTLVTALVAVVLVACGQGTASKDNKEAELKKVDFILDWTPNTNHTGLYVAKEKGYFKEAGVDVDLKLPPEESSSDLVINGKAPFAVYFQDYMAKKLEKGAGITAVAAIVEHNTSGIISRKSDNVSSPKDLVGKKYGTWNDPTELAMLKTLVESQGGDFEKVEKVPNNDSNSITPIANGVFDTAWIYYGWDGILAKSQGVDANFMYLKDYVKEFDYYSPVIIANNDYLKDNKEEARKVIQAIKKGYQYAMEHPEEAADILIKNAPELKEKRDFVIESQKYLSKEYASDKEKWGQFDAARWNAFYKWDKENGILKEDLTDKGFTNEFVK”, for which the protein production result is reported as “failed”.
As for “MKKVILLGATSNISKYLIPRLLAKNDVELTLFARQATRRLHQYAAQSQVTLTNGNWNNSADLTAAIAGQDIVYLATGHFTTANQNVVDAMKQNGVERLIVAGGLGIYDEVAGKFGIWNAQMMGDYTEIKRAAAVIDNSGLNYTFLRMAWLYNNDQHTDYKVIPQGMPFKDTQVTRQAVADLITEIIHNPQLYQRSSIGVAEPNTAWNKPGFY”, the protein production entry is listed as “failed”.
As for “MKKVLILFAHPRMEKSRANTTLLKHIPSAENITFHDLYELYPDFNIDVEAEKQLLLLHDIIIWQHPFYWYSCPPLMKQWIDMVLEFGWAYGPGGTALKDKIIFNAITTGGANATYNAGGHNRFTMQEYLRPFEQTAHLCKMIYFPPFLVQGSHRLTDEELQRFSQQYVILLTKMSQGNFEEAHMKDITFLNEICVKPR”, the protein production result is recorded as “failed”.
Take “MKKWWMLTICIVFIVAAVVPVRAAAASHPLFANVIVVFQQQVDEQAVKTLHGNVTKRFEVIPAVAATLPVTAVELLRRWPGVDYVQQDTTVAIDGQITDWGVEKVKAPVMHTHGVTGKGVKIAILDTGVDLKHPDLRVVGGACVLSYCPNSYQDDNGHGTHVAGIIAAKDNDIGTVGVAPNASIYAVKVLDRYGEGNVSDILSGIEWAMKHRVDIINLSLAAPEDAPALKAAIRKAYESGILVVAAAGNNGYANGTGDTVEYPAKYDSAIAVSAVNKENVRLPYSATGPAIEVAAPGEGVYSTVPVALDGDGRRDGYTHMSGTSMAAPFVTGVLALYKQQYPERTNIELRQMLRDRALDLGTPGRDPWYGYGLVRAVSNQPPELKVKLLSVKKGEVAFSVTLSGSAVKGYRVYRNGKQIETLQTAGTYTDYVVKGTYQYEFASIRNDGAESALTAPITVNVPDPYYKDVSASAWYMPEIAYLSSRGIVSGYNNGTIQPYNTITRAEVAVMLGRALHLDATKRATVFRDVASSDFASGYIQSAYERGLINGYPDGTFRPQQPITRAETAIILSRAYPLPGGSSMMFKDVTARVTGHEAIAKLAAARIAEGYPDGTFRPYQFVKRLEFFVFTARADNERFR”: the protein production result is “failed”.
To “MKKYFITIMILLFGTLILAACQNSDEADNYEPPKVDLKDQIPIILIHGSGGNASSLDKMADQLMNEYRSSNEALTMTVNSEGKIKFEGKLTKDAKRPIIKFGFEQNQATPDDWSKWLKIAMEDLKSRYGFTQMDGVGHSNGGLALTYYAEDYAGDKTVPTLRKLVAIGSPFNDLDPNDNGMDLSFKKLPNSTPQMDYFIKNQTEVSPDLEVLAIAGELSEDNPTDGIVPTISSLATRLFMPGSAKAYIEDIQVGEDAVHQTLHETPKSIEKTYWFLEKFKTDETVIQLDYK” belongs “failed”; to “MKKYLAGLAAVSVAGGAAPTLDSVQAAPEQNTQKAATTVQASASNNSSYTVNTSVLHVRAGSSTSHDIISRVYNGQSLNVIGEENGWFKININGKTGFVSGEFVSKSGAANNNVSTGGNNKVTADVLRVRTAPNTSSSVSGRVYAGQTLNVIGQENGWVKINHNGQVGYVSGEFVSGVSSNGGSSNNNTNNNNQEVKPASGNYTVNVSSLRVRTGPSTSHTTVGSVKKGQVVQVVGEVQDWFKINYAGQTAYISKDYVTKGGSNENVTEGNKQEQNNNGTIQTGGSYVVNATSLRVRTGPAAYHSVIGGVLNGTTLNVVGSENGWFKVNYQGKTGFVSSEFVKFVKGGTTTPEQPKQPEKPNQGTIGDYYINASALNVRSGEGTNYRIIGALPQGQKVQVISENSGWSKINYNGQTGYIGTRYLSKTPVGGAVDNKPNNNQNNNQNNNNNNNTGNNSGDSSSVLAYAKSMQGVPYVWGGTSANGVDCSGYIYHVFKKFGHNISRQSVAGYWSSLPKTSSPQPGDLIYFQNTYKSGPSHMGIYLGGGSFIQAGDKGVAIASLSNSYWKSHFLGYTKAP”, “failed”.

(Values after a protein production outcome set (Wang et al. 2014).)
